# Measurements published in the domain aggregation screens of Martell et al. (2025).
# Assay: soluble fraction after stress (log2 fold change); higher = more stays soluble; pooled small domains, quantitative proteomics
# Conditions: stress: 75 degC
# 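Also: 20 min heating vs room temperature control held 20 min.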
row,Sequence,soluble fraction (log2)
1,HMVQPSAAVRAHPVGAFVEQRQGLSDDQILALQKKWNEGIYARIQGTRWFLFSKDTPAVTSLLLVPDLP,-0.47
2,HMVQVHEWTNKAGRTIKAKFVRGDAQSVTIFLGGRNFVLKIADLSEESQALARKLSAPPPPP,-2.52
3,HMVQVPSLVGISEIEAKTLLTQAGFFVKIVEVFDANQPVGIVLAQAPSAGESRIIGSPVTITVNKAQ,-2.41
4,HMVQVRQPAGAGDLFAKGRLHLSTGTIHTVKPLEVDLPKGRLTVVTGVSGSGKTTLILESLLPALAAAAA,0.377
5,HMVRSLESESVYDRQRAYEIAYQLRTEERPYSFIATQLNKAGLRPQKAARYEWYSVQELLRSA,-1.38
6,HMVSDISTQYQKIINEALDKQPEVKLADIVTMIKEQTSNKVQNGIVENVAKQMNGIEIIKIGQAKGVRRTT,0.0482
7,HMVSDTGAIEAIVAQVLADNPKLVEGYLATPEDKRGKAIGPFIGLTRKAAAGVNPQVVMDVLKKKLSEL,-0.27
8,HMVSEASELTDTINKIGSLAQALVGANKLSKTDLVGIIKKYHTSANYNSITDIGVAKNILAELEAKN,0.13
9,HMVSFSIDEALVSAVKGPRSANVMSIQRQFLVRLSVERDGRVTITGANSKSVQQAREAVEAAVEEAKLHP,-2.96
10,HMVSGVMAQQAIAVLVQQEDKHAPLSDQALAERLQVQGIDISRRTVAKYRQLLQIPSAATRR,-0.669
11,HMVSIGSQVAKRRRELRLTQQNLAEKMGVSFQAISSWEREEFLPDINKLQKLAAILNTKISYLLEE,-1.33
12,HMVSINETAFIQIKNSSATEIKEKITALKLDELKNVTITADIRTNKLIVVGPKATINKIQELVIELDTES,-0.174
13,HMVSKTEAMAVFIADKLQEGMVPANEILELYKGMQLSDRTIRNAKKQLGIVSIRKDGQWYWSL,-1.05
14,HMVSLPSPLAGKVVSLTVQAGQEVKEGDEIMVLEAMKMNTQVHAPSSGRILALRVQPGDQVEEGQTLVTMG,0.14
15,HMVSLSNQVFEKIEYDILSGKYKIGEIISEKRLSSELGVSRTPIREALGRLSEEGLVGDSPSGTVVLGI,-0.368
16,HMVSRVTTPGVVGKTWQETKQILKQADLTVGSLTRDGKDVTPADGDLVTAQNPSAGQAIVRGSSVDLTFDK,0.0104
17,HMVSSYTMAIQINGKLRATHDFSVDTSQEDIKKIIINLPAIQKYINGVEIKKFIIVPQKIVNIV,-2.73
18,HMVSTEDEISDKLLLDFALEKLSENEKQIVKLRYYNSLTQSKTAEILNMTQVQVSRSEKKILAKLRGII,-0.0838
19,HMVSTGIMVVDGRGSVLQHNEAALRQLGVEVLTFESQVKEKLASEDFSVRETTAMLNGKKVRIIAFSDIR,-2.44
20,HMVSVEELLSSLDPNEATVLKLLAERSSGVDELMERSGLDFSALSEAITNLELFGYIAREMDGVYSFS,-1.05
21,HMVSVPDIGEKLPDFTGTPKRLLTPLLNKNDVNIIIKGDGWVVSQKPPAGTPVTKGMTIEFTL,-0.525
22,HMVTDSGEIEKLVDEVIDNNPDQVQQFREGKQQVLSYLVGQAMKLSRGKANPNQVNQFLRDKL,0.433
23,HMVTDTGEIEAIIDRVISENPDSVSDFKNGKERALKFLMGQAMKESKGKANPQIVNELLLKKL,-0.00511
24,HMVTDVDELEKLIQKVLDSNSSQVDEYRQGKEKVFGFFVGAVMKLTKGQADPDVVNQLLKEKLSGRK,-0.177
25,HMVTDVDYSTFLSQVEEGKVESVTIEDGEILFKGKDENGEARWYITGEMNDPNLVERLKDKVPSFNAPA,0.194
26,HMVTIYQRIMLVLEDKQVSVNALSKLVDMSQTTLNTQLKGERTLSANVVAKVLVAYPDVSAEWLMRGVGTM,-0.96

row,Sequence,soluble fraction (log2)
1,HMVTLYDGFLSELRKRIPRGAELTNTLVDMLYIEREAVYRRLRGEVPFTFIEVMTVSKELGISLDNLAQA,-1.38
2,HMVTTADIILEFYSRNPNATLTQAAQHVARATGTTYSRQAISAQLKRLEVAGLVERNGHVTV,-0.226
3,HMVTTLLIINVAGKVKNPGVYQLPPGSRVVDALEAAGQQLKGVDISDINLARVLVDGEQILIGSN,-2.5
4,HMVTVQEGETLSAIAARSGVSVKDLVRANEIRNPDSIQEGQVLFVP,0.115
5,HMVVADFQNYTVKPKENLYSLTKTSGLSQEELVALNPELKNGVQEGMVIKLPAAVKLMAQPE,0.201
6,HMVVLPGEVLRINVIQEGKEHGQGVGYMDDGTMVVIENGREFIGEYMEVNVTKVLQTAAGRMIFGRVD,-2.31
7,HMVVLPPTEDAPEWAQVFDRLGRPESADGYKLPVPEGADPAFAKLASAKMHELGLSAKQGAALAAWWNEQA,0.0475
8,HMVVMEIGANGSEVVKLQKRLNQLGYYTEHASGVYDVKTASAVNEFQRQNELNATGKADYTTLDMIYNQ,-0.00159
9,HMVVRRLPFGFSKRFGVLVVPGTSNPVELLYREDASMQSLLEARRVVAQPVAFKKTDVESFNAQLARAHEN,-1.66
10,HMVVSDSAEIDKIVQDVIAANPKAIEDFKSGKTNVTGWLMGQVMKLSHGKANPKQATEILNKYLSK,0.513
11,HMVVTRVKAIDVVNIRKSDSETADKLGKAAVGDEFDLLEKKGNGWSKISYEGGEAYIKSEFLEPSE,0.602
12,HMVVVMEKNASSAEIEQVQERLRQAGFKIHLSQGVERTIIGAIGDRSQVDLGFLEALPGVEKVVPIMK,0.171
13,HMVVYFGGPVMLERGIVLHTPDISTKGTINVSDDFALTAHKEILDNINKDTSSLQFKLAIGH,-0.616
14,HMVWINIRDLSDLFSKSGKSENSKNILDLQTLKIEKLLGGGQINTPYTIKVKQATPSAIEKVKQAGGEVIL,-0.104
15,HMVWPETEAIVTEDFIGKKRSEVQQEGVIFEFFGEGDMVIDQLPRGGVTLNESGRVWIYLGEDTF,-0.78
16,HMVYFAKNIRHLRRLRGMSQELLAAELDITRARLGAYEESRSEPPLHLLIKISEFFKLPVDIIVKNDLTKS,-4.88
17,HMVYFDDEELDRFAGRAADSYTSDETDEFRDVMLTLLPADVMPWTQSIEMRGILLPEQLRDELLML,-0.391
18,HMVYVPTKAEVSQQFQDASKARFDERYAIVELADGRRTMAPLAFLTKADHAWLKQLASTSPLPKGK,-0.16
19,HMWAQSVSLHGLLGRQALLIVDGKPPRAVAPGQTHLGVTVLSTDEDRAVVALAGGQRLTLRVGESPVSVG,-1.51
20,HMWMEKEELLWNDIIRGGVERGELREDTDIQEAAALFRQVFIGLAYQMSFSDGLDVGILRKRFHHIYGLLT,-0.173
21,HMWNKGETKIPTQAQNELIKRRQAGATWTSLSEWLKATYGIDIHRTNIQRWYDKEVYLDQEN,-0.531
22,HMWNPVLVVRGDFPKDLATTLLKMIFAQKEALNPHILFQNLLRTDNITFRESYPYHSASKTMFRF,-0.276
23,HMWPQIAGFADRFGLSDTERRIVTLMSHGRSRKIIASTLGYSQNTIRNYTRNIYAKAGVHSKQELLDLLDP,-1.96
24,HMWPTPRTWSALMNELNLYKENHGYANIVDIPSEKIRRMADGIIGEDMAVRYVAFLQSHASS,-1.7
25,HMWQKGEPAITGLKRISKPGLRIYSKNDELPIVYGNRGIAVISTNKGVMTGIEAKRSGVGGEVLFYV,-0.112
26,HMWSAREQVVNSLREAILTSELKAGERLVLSDLSARLGVSVTPIREALQSLEREGLVQLMPHQEAVVV,0.18

row,Sequence,soluble fraction (log2)
1,HMWVETITTKAGITKYKFQERYTDTYSGKTKRVSVTYTSNSRQAYKLAQAELQKKIDLATNTD,-0.638
2,HMYAHLGKNLEVVINKALAQEDPEKKAGFAHHIAYYMKLAYSNWHKELVHDDAIRSELDTITGGELEFSN,0.609
3,HMYAHTPEMEAMNELGLEPPVTLDEIKKTYKTLVKKYHPDHNKEDPEAEEKLKKVNMAYTILKVAYTEFEK,-0.246
4,HMYALGIPVSQYRRTTQVLGHESSYPIAYEDEKQDDDFYLFKFPNIDEYDFKKIVILLKQNGITT,-2.11
5,HMYDNTVTKYVNSLSVYVRKGPSTSDEIVTSLIKDTDVTVVGENGEWYKIKYKEFEGYIYKNLLSDNKT,-1.91
6,HMYDRIKLLKLREKRGLTQYELAEKAGISVVTLNKIETSDMAKPFASTLKKIALALGVGIEELS,-2.2
7,HMYEDGGAFLKAEREKYGLTLTDIYEHTHIPVRKLKAYEMHEEEMPDRTRALLELYFDQVAYEYES,-0.734
8,HMYEDIDSAYRILEINSTVSNQEIKNAYRRMAKKYHPDKVAHLGVEHQKGAEEKFKKVQEAYILIKKRRG,-0.918
9,HMYEENFSKIKNDISTIFKRHKISFTNNFISHLSSVFNTDSLTNKMELEKLDSFLINNKKVTENELLKFII,-0.0789
10,HMYEINEIIRERRLKKGLTQAQVAKYLGVSAPAVNKWEKGTTYPDLVLLPALARLLDTDLTTLLSF,-1.46
11,HMYEVVPNMRGLTYNQATAALAAAGLKVELSDSIYDEHTQPGTVLDQSPRPNTKVKPNRVVYLTVNAF,-1.1
12,HMYFDDEELDTYKGRASNAYSPDETAQFEEVMTTMRPDEVAAWLRSLQLRGINLPDELKDEAIMLVE,-0.0968
13,HMYFGNSLFQARKRSGLSQEGVAEKLGVSRQTVSKWETGETVPDIYQSKKMARLYGVSLDEL,0.206
14,HMYFNTADLKADSIHYGSTEQSVIKILGEPEYRETFVDNNVSYELFSYKGNLLLSFVENSLVSL,0.147
15,HMYGTERILAQLANYGIPNKLAFQIQDFYKEETLQIVEQQPYRLVEDIQGMGFKIADQLAEELGI,-0.307
16,HMYIDLHEIWKSLTDEEQTVVKLLETEPAHVDTLIENSQIPASRILATLTLLEVRGIVKRLPGRMFSLAD,-3.61
17,HMYIENIGDYLKSHDIKPSYQRIKVFEYLMQHKNHPTVDMIYKSLVDEIPTLSKTTVYNTLNLFIEKQI,-1.55
18,HMYITGAVIRKLREKNNITQLQLAERLRVSDKTISKWETGKGYPDITLLEPIAKTFSVSVTELISGDI,-2.46
19,HMYKNLRAFRESLGMTQKDFAASLSIGLSTYNGYEVGAREPKSDFWIAVARKYGVTIDYLMGFSDDPHK,-1.46
20,HMYKSSRASKSEVNKFLKFIIQSLDKRGFLQPGHKRQSMIRNIENIFYRTNLSDQEIRILLGIFSTLNK,-0.9
21,HMYLELVTKEGGSFDEPDYWGRRKLAYEIAGKTEGNYVVVKYTAEPATSDELDRVLNLNESVIRTKILRK,0.00439
22,HMYLHSEFSPVTGQELHMKYDDSSTEEDPVMLVEGKDIQGNDFVKKIHLNDVDPENATPAEMTALRVHL,0.206
23,HMYLLPVTSTELKGNYPNPFNPETTISFDLKDAERVNLSIYNLKGQLVRTLVNSDLPIGRHRLIWDGNDS,-0.622
24,HMYLPGERMRIKITALGSNPKQGVGYLPDGMMVVVDEAATLVGRFVEIEFVKFLQTNSGRMMFAKVAT,-1.96
25,HMYMKGKVKWFDSKKGYGFITSENGKEIFVHFSGIAAKGFKSLNEGQTVEFEVANGAKGEQAVNVTV,-1.23
